Read-outs that look alike come from different tables or passages of the source.
How the values were obtained:
[1] = target: T1, hVEGF-A (human, UniProt P15692-4 27-191, limits assumed); experiment: cell-based or functional assay
[2] = target: T2, hVEGF-A (8-109) (human, UniProt P15692 214-315); experiment: spot phage ELISA
T2 sequence (looked up): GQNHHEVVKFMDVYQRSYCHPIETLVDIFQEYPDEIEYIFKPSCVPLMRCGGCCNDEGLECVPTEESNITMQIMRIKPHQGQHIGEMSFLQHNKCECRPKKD
Experimental: (§1) After four rounds of binding selection, individual phage clones were picked and inoculated into 450 μl 2YT media containing 50 µg/ml Carbenecillin and M13-KO7 helper phage in 96-well blocks, which were grown at 37° C. overnight. […] The plates were washed and bound phage was detected with anti-M13-HRP followed by TMB substrate. In these assays, phage binding to BSA alone was tested in parallel to assess background binding. […] Positive clones were subjected to DNA sequence analysis.

[3] = target: T1, hVEGF-A; experiment: phage competition ELISA, soluble CKP
[4] = target: T2, hVEGF-A (8-109); experiment: spot phage ELISA; remark: listed apart in the source
Experimental: as §1

[5] = target: T1, hVEGF-A; experiment: KDR-VEGF competition ELISA
[6] = target: T1, hVEGF-A; experiment: cell-based or functional assay; remark: listed apart in the source
[7] = target: T2, hVEGF-A (8-109); experiment: spot phage ELISA; remark: listed apart in the source
Experimental: as §1

[8] = target: T2, hVEGF-A (8-109); experiment: phage competition ELISA (clone on phage; the concentration varied on the axis is that of hVEGF (8-109))
[9] = target: T2, hVEGF-A (8-109); experiment: spot phage ELISA; remark: listed apart in the source
Experimental: as §1

B1: VEGF_CKP9.54.90.25 (designed binder)
chain: GCNIMLPFWGCGRDFECMQTCICQYYQSCG
- Cellular IC50 [1]: 1.26 nM
- FOLD [..] [..] TO VARIANT 9.54.90 [1]: 1.07 fold

B2: VEGF_CKP9.54.90.44 (designed binder)
chain: GCNIMLPFWGCGRDFECFINCICQYYQSCG
- Cellular IC50 [1]: 1.16 nM
- FOLD [..] [..] TO VARIANT 9.54.90 [1]: 1.16 fold

B3: VEGF_CKP9.63.12.12 (designed binder)
chain: GCDVMQPYWGCGPDIDCLSNCICHWYNSCG
- Cellular IC50 [1]: 0.56 nM
- FOLD [..] [..] TO VARIANT 9.54.90 [1]: 2.41 fold

B4: 9.54.90.F7Y.A2G (designed binder)
chain: CNIMLPYWGCGRDFECLAGCVCQYYQSC
- Cellular IC50 [1]: 3.01 nM
- FOLD [..] [..] TO VARIANT 9.54.90 [1]: 0.44 fold

B5: VEGF_CKP9.54.90.13.F8Y (designed binder)
chain: GCNIMLPYWGCGRDFECMNQCICQYYQSCG
- Cellular IC50 [1]: 2.02 nM
- FOLD [..] [..] TO VARIANT 9.54.90 [1]: 0.67 fold

B6: VEGF_CKP9.54.90.62.F8Y (designed binder)
chain: GCNIMLPYWGCGRDFECFYECICQYYQSCG
- Cellular IC50 [1]: 1.14 nM
- FOLD [..] [..] TO VARIANT 9.54.90 [1]: 1.18 fold

B7: VEGF_CKP9.11 (designed binder)
chain: GCDRMQPYWGCKQDSDCLAGCVCQWYKSCG
- ELISA [2]: 1.1
- S/N vs BSA [2]: 14.1

B8: VEGF_CKP9.14 (designed binder)
chain: GCKLLQPMWGCKQDSDCLAGCVCRWYQSCG
- ELISA [2]: 2
- S/N vs BSA [2]: 30.1

B9: VEGF_CKP9.20 (designed binder)
chain: GCNLMLPFWGCKQDSDCLAGCVCRWYHSCG
- IC50 [3]: 1340 nM

B10: VEGF_CKP9.47 (designed binder)
chain: GCKIMQPLWGCKQDSDCLAGCVCLWYDSCG
- ELISA [2]: 1
- S/N vs BSA [2]: 14.6

B11: VEGF_CKP9.51 (designed binder)
chain: GCNLMHPFWGCKQDSDCLAGCVCHWYQSCG
- ELISA [2]: 1
- S/N vs BSA [2]: 11

B12: VEGF_CKP9.63.27 (designed binder)
chain: GCDVMQPYWGCGRDMDCLAGCVCHWYNSCG
notes: also called L2.9.63.27
- ELISA [4]: 2.1
- S/N vs BSA [4]: 26
- IC50 [5]: 0.3 nM
- Cellular IC50 [6]: 5.28 nM

B13: VEGF_CKP9.63.44 (designed binder)
chain: GCDVMQPYWGCEMDFDCLAGCVCHWYNSCG
notes: also called L2.9.63.44
- ELISA [4]: 1.7
- S/N vs BSA [4]: 19.5
- IC50 [5]: 0.2 nM
- Cellular IC50 [6]: 2.05 nM

B14: VEGF_CKP9.69 (designed binder)
chain: GCALLQPLWGCKQDSDCLAGCVCRWYNSCG
- ELISA [2]: 1
- S/N vs BSA [2]: 14.3

B15: VEGF_CKP9.71 (designed binder)
chain: GCQLLQPLWGCKQDSDCLAGCVCRWYQSCG
- ELISA [2]: 1
- S/N vs BSA [2]: 16.5

B16: VEGF_CKP9.72 (designed binder)
chain: GCRLLEPSWGCKQDSDCLAGCVCQWYQSCG
- ELISA [2]: 0.6
- S/N vs BSA [2]: 10

B17: VEGF_CKP9.76 (designed binder)
chain: GCHLLLPLWGCKQDSDCLAGCVCRWYHSCG
- ELISA [2]: 1.3
- S/N vs BSA [2]: 15.5

B18: VEGF_CKP9.96 (designed binder)
chain: GCKLFEPLWGCKQDSDCLAGCVCRWYESCG
- IC50 [3]: 49000 nM
- ELISA [2]: 1.2
- S/N vs BSA [2]: 18.4

B19: VEGF_CKP9.L1.2 (designed binder)
chain: GCHLFEPLWGCKQDSDCLAGCVCHWYQSCG
- ELISA [7]: 1.6
- S/N vs BSA [7]: 12.5

B20: VEGF_CKP9.L1.7 (designed binder)
chain: GCQVMRPFWGCKQDSDCLAGCVCHWYQSCG
- ELISA [7]: 1.5
- S/N vs BSA [7]: 8.9

B21: VEGF_CKP9.L1.8 (designed binder)
chain: GCQVMQPAWGCKQDSDCLAGCVCHWYQSCG
- ELISA [7]: 1.2
- S/N vs BSA [7]: 12.8

B22: VEGF_CKP9.L1.19 (designed binder)
chain: GCHRLQPLWGCKQDSDCLAGCVCHWYQSCG
- ELISA [7]: 1.4
- S/N vs BSA [7]: 11.6

B23: VEGF_CKP9.L1.57 (designed binder)
chain: GCNPMLPFWGCKQDSDCLAGCVCHWYQSCG
- ELISA [7]: 3.7
- S/N vs BSA [7]: 31.8

B24: VEGF_CKP9.L1.64 (designed binder)
chain: GCNVLLPLWGCKQDSDCLAGCVCHWYQSCG
- ELISA [7]: 2.3
- S/N vs BSA [7]: 19.9

B25: VEGF_CKP9.L1.68 (designed binder)
chain: GCDIMQPLWGCKQDSDCLAGCVCHWYQSCG
- ELISA [7]: 2
- S/N vs BSA [7]: 23.2

B26: VEGF_CKP9.L1.76 (designed binder)
chain: GCDLMQPLWGCKQDSDCLAGCVCHWYQSCG
- ELISA [7]: 2.5
- S/N vs BSA [7]: 17.4

B27: VEGF_CKP9.L1.78 (designed binder)
chain: GCNPMLPLWGCKQDSDCLAGCVCHWYQSCG
- ELISA [7]: 3
- S/N vs BSA [7]: 25.1

B28: VEGF_CKP9.L1.79 (designed binder)
chain: GCQVLQPSWGCKQDSDCLAGCVCHWYQSCG
- ELISA [7]: 1.2
- S/N vs BSA [7]: 10

B29: VEGF_CKP9.54.2 (designed binder)
chain: GCNIMLPFWGCGLDYDCLAGCVCQYYQSCG
- ELISA [4]: 0.1
- S/N vs BSA [4]: 26
- IC50 [5]: 0.2 nM
- Cellular IC50 [6]: 4.3 nM

B30: VEGF_CKP9.54.59 (designed binder)
chain: GCNIMLPFWGCGPDLQCLAGCVCQYYQSCG
- ELISA [4]: 2.3
- S/N vs BSA [4]: 35.4
- IC50 [5]: 0.5 nM
- Cellular IC50 [6]: 3.06 nM

B31: VEGF_CKP9.59 (designed binder)
chain: GCDPMQPFWGCKQDSDCLAGCVCRWYQSCG
- IC50 [3]: 5820 nM

B32: VEGF_CKP9.63.1 (designed binder)
chain: GCDVMQPYWGCGENFLCLAGCVCHWYNSCG
notes: also called L2.9.63.1
- ELISA [4]: 2
- S/N vs BSA [4]: 25.2
- IC50 [5]: 0.4 nM
- Cellular IC50 [6]: 0.49 nM

B33: VEGF_CKP9.63.69 (designed binder)
chain: GCDVMQPYWGCGESLSCLAGCVCHWYNSCG
notes: also called L2.9.63.69
- ELISA [4]: 2.9
- S/N vs BSA [4]: 23.7
- IC50 [5]: 2.1 nM
- Cellular IC50 [6]: 26.4 nM

B34: 9.63.44-1 (designed binder)
chain: GCDVMQPYWGCEMDFDCLAGCICHWYNSCGFS
- IC50 (read off the curve) [8]: ~0.04 nM

B35: 9.63.44-2 (designed binder)
chain: GCDVMQPYWGCEMDFDCLAGCICHWYNSCGQV
- IC50 (read off the curve) [8]: ~0.03 nM

B36: 9.63.44-3 (designed binder)
chain: GCDVMQPYWGCEMDFDCLAGCICHWYNSCGYA
- IC50 (read off the curve) [8]: ~0.03 nM

B37: VEGF_CKP9.3 (designed binder)
chain: GCQISQPFWGCKQDSDCLAGCVCHFYNSCG
- IC50 [3]: 1500 nM
- ELISA [2]: 1.6
- S/N vs BSA [2]: 24.5

B38: VEGF_CKP9.9 (designed binder)
chain: GCQLLEPMWGCKQDSDCLAGCVCHWYNSCG
- ELISA [2]: 1.1
- S/N vs BSA [2]: 19.7

B39: VEGF_CKP9.4 (designed binder)
chain: GCDRMQPLWGCKQDSDCLAGCVCLWYKSCG
- IC50 [3]: 1950 nM

B40: VEGF_CKP7.54 (designed binder)
chain: GCLDRTLNWALYCKQDSDCLAGCVCQMYNSCG
- ELISA [9]: 0.5
- S/N vs BSA [9]: 9.3

B41: VEGF_CKP7.73 (designed binder)
chain: GCRDLTINWALFCKQDSDCLAGCVCQMFNSCG
- ELISA [9]: 1.2
- S/N vs BSA [9]: 19.2

B42: VEGF_CKP7.78 (designed binder)
chain: GCKDTTFNWGLFCKQDSDCLAGCVCQLYQSCG
- ELISA [9]: 0.7
- S/N vs BSA [9]: 11.8

B43: VEGF_CKP7.81 (designed binder)
chain: GCLDPTVNWALFCKQDSDCLAGCVCQHYKTCG
- ELISA [9]: 1.1
- S/N vs BSA [9]: 18.6

B44: VEGF_CKP7.88 (designed binder)
chain: GCQDPKLNWAVYCKQDSDCLAGCVCQLFNSCG
- ELISA [9]: 0.5
- S/N vs BSA [9]: 7.7

B45: LRP6_CKP7.89 (designed binder)
chain: GCLDPSFDWALYCKQDSDCLAGCVCQLYNSCG
- ELISA [9]: 0.5
- S/N vs BSA [9]: 8.1
